Data on one substance can be found in publication PMC5031806.

For this test, the target named is meMICU1^97-476 (human MICU1 residues 97-476, methylated in vitro by recombinant PRMT1) (human) (UniProt Q9BPX6). Briefly: ITC; IML2^UCP2 (500 μM, syringe) titrated into MICU1 (40 μM, cell); VP-ITC, 25 °C; 20 mM Tris pH 7.0, 500 mM NaCl, 50 mM Arg, 2 mM BME; single site-binding model.
UniProt Q9BPX6, sequence (Q9BPX6 97-476): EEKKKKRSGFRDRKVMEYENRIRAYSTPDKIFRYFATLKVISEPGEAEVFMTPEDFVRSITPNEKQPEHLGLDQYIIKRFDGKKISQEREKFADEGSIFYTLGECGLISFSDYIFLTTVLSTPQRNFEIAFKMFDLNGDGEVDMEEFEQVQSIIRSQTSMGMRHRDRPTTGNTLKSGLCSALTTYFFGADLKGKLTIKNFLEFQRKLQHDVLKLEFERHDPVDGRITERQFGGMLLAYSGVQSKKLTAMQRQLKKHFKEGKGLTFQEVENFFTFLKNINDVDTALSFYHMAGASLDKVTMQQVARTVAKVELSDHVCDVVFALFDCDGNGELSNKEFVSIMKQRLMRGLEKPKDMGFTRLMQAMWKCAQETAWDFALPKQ

What is called Kd is a measure of binding affinity in units of concentration. Regarding “IML2^UCP2 (chemically synthetized intermembrane loop 2 of UCP2) (from UniProt P55851 147-171) (peptide)”, the Kd was 24.6 µM.
